Experimental data from article PMC4211926 (Journal of molecular biology, 2013).
Where a chain is given by its changes, count along the chain named. In names and notes the source's numbering stands. Like-named read-outs stand apart in the source and are kept apart here.

How the values were obtained:
[1] = target: T1, SIRT1 catalytic domain (SIRT1^CAT), residues 234-510 (human, UniProt Q96EB6 234-510); experiment: SEC
T1 sequence (looked up): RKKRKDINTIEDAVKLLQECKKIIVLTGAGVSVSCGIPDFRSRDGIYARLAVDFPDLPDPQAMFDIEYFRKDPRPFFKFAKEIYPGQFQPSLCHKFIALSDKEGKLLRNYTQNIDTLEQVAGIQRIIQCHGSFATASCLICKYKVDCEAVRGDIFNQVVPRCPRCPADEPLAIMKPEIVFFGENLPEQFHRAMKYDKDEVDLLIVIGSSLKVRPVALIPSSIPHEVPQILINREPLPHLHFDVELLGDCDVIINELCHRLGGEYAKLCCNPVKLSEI

[2] = target: T2, His-tagged SIRT1 catalytic domain (His-tagged SIRT1^CAT) (human, UniProt Q96EB6 234-510); experiment: pull-down
T2 sequence (looked up): T1 sequence (looked up)

[3] = target: T1, SIRT1 catalytic domain (SIRT1^CAT), …; experiment: SEC; remark: listed apart in the source
[4] = target: T1, SIRT1 catalytic domain (SIRT1^CAT), …; experiment: SEC; remark: listed apart in the source
[5] = target: T3, SIRT1^CAT D481A (human, UniProt Q96EB6 234-510, D481A); experiment: SEC
T3 sequence (looked up): T1 sequence (looked up) with D248A

[6] = target: T4, SIRT1^CAT S265A (human, UniProt Q96EB6 234-510, S265A); experiment: SEC
T4 sequence (looked up): T1 sequence (looked up) with S32A

[7] = target: T5, SIRT1^CAT R466A (human, UniProt Q96EB6 234-510, R466A); experiment: SEC
T5 sequence (looked up): T1 sequence (looked up) with R233A

[8] = target: T6, SIRT1^CAT I347A (human, UniProt Q96EB6 234-510, I347A); experiment: SEC
T6 sequence (looked up): T1 sequence (looked up) with I114A

[9] = target: T7, SIRT1^CAT R276A (human, UniProt Q96EB6 234-510, R276A); experiment: SEC
T7 sequence (looked up): T1 sequence (looked up) with R43A

[10] = target: T8, SIRT1^CAT H363A (human, UniProt Q96EB6 234-510, H363A); experiment: SEC
T8 sequence (looked up): T1 sequence (looked up) with H130A

[11] = target: T9, SIRT1^CAT F414A (human, UniProt Q96EB6 234-510, F414A); experiment: SEC
T9 sequence (looked up): T1 sequence (looked up) with F181A

[12] = target: T10, SIRT1^CAT Q345A (human, UniProt Q96EB6 234-510, Q345A); experiment: SEC
T10 sequence (looked up): T1 sequence (looked up) with Q112A

Measured: binding result

QYLFLPPNRYIFHGAEVYSDSEDDV (domain or fragment, human, UniProt Q96EB6 641-665, looked up) [SUMO-tagged C-terminal regulatory segment of SIRT1 (SUMO-CTR), residues 641-665]
binds: [1] | [2]

QYLFLPPNRYIFHGAAVYSDSEDDV (domain or fragment, human, UniProt Q96EB6 641-665, looked up) [CTR E656A]
binds: [3]

QYLFLPPNRYIFHGAEVYSDSEDDV (domain or fragment, human, UniProt Q96EB6 641-665, looked up) [GST-tagged C-terminal regulatory segment of SIRT1 (GST-CTR)]
binds: [2]

QYLFLPPNRYIFHGAEVYSDSEDDV (domain or fragment, human, UniProt Q96EB6 641-665, looked up) [C-terminal regulatory segment of SIRT1 (CTR), residues 641-665]
not listed: [1] | [2] | [3]
binds: all other assays above
